Assay results from publication PMC11602132.

Target: Non-structural protein 15 (Nsp15) from SARS-CoV-2 (SARS-CoV-2)
Assay: SEC

Non-structural protein 15 (Nsp15) from SARS-CoV-2 (enzyme)
stoichiometry N: 6
